{"source": "patent US20120237528A1", "about": "(Janssen / Centocor, published 2012)", "binders": {"B1": {"name": "M1593 (wild-type human IgG1/kappa constant domains) (antibody)", "heavy": "not shown", "light": "DIVMTQTPLSLPVTPGEPASISCKSSQSLLSSGNQKNYLTWYLQKPGQSPQLLIYWASTRESGVPDRFSGSGSGTDFTLKISRVEAEDVGVYYCQNDYTYPLTFGQGTKLEIKRTVAAPSVFIFPPSDEQLKSGTASVVCLLNNFYPREAKVQWKVDNALQSGNSQESVTEQDSKDSTYSLSSTLTLSKADYEKHKVYACEVTHQGLSSPVTKSFNRGEC", "notes": "produced in unmodified CHO; also called H171/L3; copies: 2 + 2"}, "B2": {"name": "M1593-LF (hIgG1 produced in host subline producing reduced fucosylation in glycans) (antibody)", "heavy": "not shown", "light": "B1 light", "modifications": "glycan with low fucose content (less than 10% fucosylated)", "notes": "same chains as M1593 (IgG1/Kappa), made in a low-fucose CHO subline; copies: 2 + 2"}, "B3": {"name": "M1593-DE (hIgG1 with S239D/I332E) (antibody)", "heavy": "not shown", "light": "B1 light", "notes": "copies: 2 + 2"}, "B4": {"name": "M1, 10H10 mouse-human chimera (antibody, V domains shown)", "VH": "QVHLQQSGAELMKPGASVKISCKASGYTFITYWIEWVKQRPGHGLEWIGDILPGSGSTNYNENFKGKATFTADSSSNTAYMQLSSLTSEDSAVYYCARSGYYGNSGFAYWGQGTLVTVSA", "VL": "DIVMTQSPSSLTVTAGEKVTMSCKSSQSLLSSGNQKNYLTWYQQIPGQPPKLLIYWASTRESGVPDRFTGSGSGTDFTLTINSVQAEDLAVYYCQNDYTYPLTFGAGTKLELK", "notes": "also called H13/L1; parent chimeric antibody"}, "B5": {"name": "M59 (antibody, V domains shown)", "VH": "EVQLVQSGAEVKKPGESLRISCKGSGYTFITYWIEWVRQMPGKGLEWMGDILPGSGSTNYSPSFQGHVTISADKSISTAYLQWSSLKASDTAMYYCARSGYYGNSGFAYWGQGTLVTVSS", "VL": "DIVMTQTPLSLPVTPGEPASISCKSSQSLLSSGNQKNYLTWYLQKPGQSPQLLIYWASTRESGVPDRFSGSGSGTDFTLKISRVEAEDVGVYYCQNDYTYPLTFGQGTKLEIK", "notes": "FR4 is its own entry; also called H22/L3"}, "B6": {"name": "M61 (antibody, V domains shown)", "VH": "B5 VH", "VL": "B5 VL with P12S, E17Q, S49P", "notes": "complete MAb; FR4 is its own entry; also called H22/L5"}}, "key": {"[1]": {"molecular_target": "Innovin, lyophilized recombinant human tissue factor combined with phospholipids (human, UniProt P13726 33-295, limits assumed)", "assay": "cell-based or functional assay"}, "[2]": {"molecular_target": "T1, recombinant human FcγIIIa receptor (human, UniProt P08637 17-208, limits assumed)", "T1 construct": "also called FcγRIIIa", "T1 sequence (P08637 17-208 limits assumed)": "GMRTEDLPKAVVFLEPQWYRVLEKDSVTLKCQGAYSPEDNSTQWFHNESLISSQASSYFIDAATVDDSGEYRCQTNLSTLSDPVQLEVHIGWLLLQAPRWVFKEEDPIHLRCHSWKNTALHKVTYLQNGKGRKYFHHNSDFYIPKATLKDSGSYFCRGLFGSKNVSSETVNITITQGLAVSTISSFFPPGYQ", "assay": "Fc receptor binding assay (method of a co-pending application or Biacore)"}, "[3]": {"molecular_target": "T1, recombinant human FcγIIIa receptor", "assay": "cell-based or functional assay"}, "[4]": {"molecular_target": "T1, recombinant human FcγIIIa receptor", "assay": "Fc receptor binding assay"}, "[5]": {"molecular_target": "T2, recombinant extracellular domain (ECD) of human TF, amino acid 1-219 of the mature chain, C-terminal His6-tag (human, UniProt P13726 33-251)", "T2 construct": "expressed in a mammalian system; used for ELISA and Biacore; biotinylated by NHS-ester for the Fab ELISA; also called His6-TF-ECD1-219; HumanTF1-219", "assay": "TF-ECD binding ELISA, chemiluminescent"}, "[6]": {"molecular_target": "T3, Cynomolgous monkey (cyno) TF-ECD with His Tag (cynomolgus monkey, UniProt P13726 33-251 (human entry))", "T3 construct": "also called cyno antigen", "T3 chain": "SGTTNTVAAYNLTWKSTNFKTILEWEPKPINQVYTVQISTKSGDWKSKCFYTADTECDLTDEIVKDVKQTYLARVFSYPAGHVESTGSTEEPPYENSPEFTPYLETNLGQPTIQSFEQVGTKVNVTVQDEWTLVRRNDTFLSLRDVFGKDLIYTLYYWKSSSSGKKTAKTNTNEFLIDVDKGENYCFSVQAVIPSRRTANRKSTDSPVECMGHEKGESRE", "assay": "TF-ECD binding ELISA, chemiluminescent"}, "[7]": {"molecular_target": "T4, endogenous human tissue factor on MDA-MB-231 breast cancer cells (human, UniProt P13726 33-295)", "assay": "cell-based or functional assay"}, "[8]": {"molecular_target": "T4, endogenous human tissue factor on …", "assay": "FACS on MDA-MB-231 cells", "protocol": "This assay is used to detect the direct binding of antibody to endogenouse human TF expressed in breast cancer cells. Prepare four point titrations of the test mAbs in FACS buffer (1% FBS in PBS) in duplicate. Start a titration at 1,000 ng/ml with 1:4 dilutions. […] Unstained cells and secondary antibody, Cy-5 conjugated Goat anti-Human IgG Fc antibody in FACS buffer 1:200, is used as controls and prepared immediately before use.\nUsing standard tissue culture technique, rinse adherent MDA-MB-231 cells in culture flask with once with PBS (w/o Ca+2/Mg+2). Lift cells with Versene and count the cells and seed 200,000 cells per well in a polystyrene V-bottom plate. FACS Analysis Protocol: Tissue Factor Binding. Pellet the cells in a Allegra X-15R centrifuge at 450×g for 3 minutes at 4° C., resuspend in FACS Buffer (2% FBS in PBS) and plate 200,000 cells per well in 200 uL. Pellet cells at 450×g for 3 minutes at 4° C. Discard supernatants and add 100 uL/well test or control mAbs to designated wells and incubate on ice or at 4° C. for 1 hour (+/−10 minutes). Pellet cells at 450×g for 3 minutes at 4° C. Discard supernatants and wash cells once in FACS buffer. Resuspend cells in 200 uL/well FACS buffer and pellet cells at 450×g for 3 minutes at 4° C. Discard supernatants and add 100 uL/well secondary antibody to designated wells (triterate), and incubate on ice for 1 hour (+/−10 minutes). Pellet cells at 450×g for 3 minutes at 4° C. Discard supernatants and wash cells 2 times in FACS buffer before resuspending the cells in 200 uL/well FACS Buffer (triterate). Pellet cells at 450×g for 3 minutes at 4° C. Discard supernatant and resuspend cells in 100 uL/well CytoFix Buffer. Analyze reactions by flow cytometry (BD FACSArray). The FlowJo Software is used for FACS data analysis by gating the main population of cells in the unstained control well and applying the gate to the whole data set. The data is exported as a table of the geometric mean fluorescence intensity (MFI) in the red channel for the applied gate."}, "[9]": {"molecular_target": "T2, recombinant extracellular domain (ECD) …", "assay": "Biacore"}, "[10]": {"molecular_target": "T3, Cynomolgous monkey (cyno) TF-ECD with …", "assay": "Biacore"}, "[11]": {"molecular_target": "T4, endogenous human tissue factor on …", "assay": "cell-based or functional assay", "remark": "listed apart in the source"}, "[12]": {"molecular_target": "T4, endogenous human tissue factor on …", "assay": "cell-based or functional assay", "remark": "listed apart in the source"}, "[13]": {"molecular_target": "T2, recombinant extracellular domain (ECD) …", "assay": "Biacore, KD compared with the reference (0.56 nM, the value of M1 in Table 5)"}, "[14]": {"molecular_target": "T2, recombinant extracellular domain (ECD) …", "assay": "Biacore", "remark": "listed apart in the source"}, "[15]": {"molecular_target": "T2, recombinant extracellular domain (ECD) …", "assay": "Biacore", "remark": "listed apart in the source"}}, "note": "Where a chain is given by its changes, count along the chain named. Names may count otherwise. Where two headings read alike, the source gives them in different places.", "data": [{"binder": "B1", "values": [{"measurement": "T½ Max (seconds), coagulation of human plasma", "setting": "[1]", "result": 164, "unit": "s"}, {"measurement": "Kd", "setting": "[2]", "result": 210, "unit": "nM"}, {"measurement": "EC50 (read off the curve)", "setting": "[3]", "result": "~0.02", "unit": "µg/mL"}]}, {"binder": "B2", "values": [{"measurement": "fold tighter binding than the unmodified IgG1 M1593", "setting": "[4]", "result": 18, "unit": "fold"}, {"measurement": "Kd", "setting": "[2]", "result": 12, "unit": "nM"}, {"measurement": "EC50 (read off the curve)", "setting": "[3]", "result": "~0.006", "unit": "µg/mL"}]}, {"binder": "B3", "values": [{"measurement": "fold tighter binding than the unmodified IgG1 M1593", "setting": "[4]", "result": 40, "unit": "fold"}, {"measurement": "Kd", "setting": "[2]", "result": 5, "unit": "nM"}, {"measurement": "EC50 (read off the curve)", "setting": "[3]", "result": "~0.005", "unit": "µg/mL"}]}, {"binder": "B4", "values": [{"measurement": "EC50", "setting": "[5]", "result": 0.0117, "unit": "µg/mL"}, {"measurement": "EC50", "setting": "[6]", "result": 0.0173, "unit": "µg/mL"}, {"measurement": "T½ Max (seconds), coagulation of human plasma", "setting": "[1]", "result": 173, "unit": "s"}, {"measurement": "IC50 (ug/ml), IL-8 induction assay", "setting": "[7]", "result": 0.527, "unit": "µg/mL"}, {"measurement": "Whole Cell Binding, Ave %", "setting": "[8]", "result": 101, "unit": "%"}, {"measurement": "Kd", "setting": "[9]", "result": 0.56, "unit": "nM"}, {"measurement": "Kd", "setting": "[10]", "result": 1.34, "unit": "nM"}, {"measurement": "% IL-8 Inhibition", "setting": "[11]", "result": 96.1, "unit": "%"}, {"measurement": "IL-8 Induction, Ave % inhibition", "setting": "[12]", "result": 106, "unit": "%"}, {"measurement": "EC50 (read off the curve)", "setting": "[3]", "result": "~0.07", "unit": "µg/mL"}]}, {"binder": "B5", "values": [{"measurement": "EC50", "setting": "[5]", "result": 0.0088, "unit": "µg/mL"}, {"measurement": "EC50", "setting": "[6]", "result": 0.0187, "unit": "µg/mL"}, {"measurement": "T½ Max (seconds), coagulation of human plasma", "setting": "[1]", "result": 169, "unit": "s"}, {"measurement": "IC50 (ug/ml), IL-8 induction assay", "setting": "[7]", "result": 0.382, "unit": "µg/mL"}, {"measurement": "Kd", "setting": "[10]", "result": 1.28, "unit": "nM"}, {"measurement": "% IL-8 Inhibition", "setting": "[11]", "result": 83.8, "unit": "%"}, {"measurement": "IL-8 Induction, Ave % inhibition", "setting": "[12]", "result": 103, "unit": "%"}]}, {"binder": "B6", "values": [{"measurement": "EC50", "setting": "[5]", "result": 0.0083, "unit": "µg/mL"}, {"measurement": "EC50", "setting": "[6]", "result": 0.0241, "unit": "µg/mL"}, {"measurement": "T½ Max (seconds), coagulation of human plasma", "setting": "[1]", "result": 186, "unit": "s"}, {"measurement": "fold lower KD than the murine parent MAb", "setting": "[13]", "result": 2.5, "unit": "fold"}, {"measurement": "Kd", "setting": "[14]", "result": 0.2, "unit": "nM"}, {"measurement": "koff", "setting": "[14]", "result": "1.9e-05", "unit": "s⁻¹"}, {"measurement": "kon", "setting": "[14]", "result": 94100, "unit": "M⁻¹ s⁻¹"}, {"measurement": "Whole Cell Binding, Ave %", "setting": "[8]", "result": 111, "unit": "%"}, {"measurement": "Kd", "setting": "[9]", "result": 0.21, "unit": "nM"}, {"measurement": "Kd", "setting": "[10]", "result": 1.71, "unit": "nM"}, {"measurement": "% IL-8 Inhibition", "setting": "[11]", "result": 107, "unit": "%"}, {"measurement": "fold lower KD than the murine parent MAb (M1)", "setting": "[15]", "result": 2.5, "unit": "fold"}, {"measurement": "IL-8 Induction, Ave % inhibition", "setting": "[12]", "result": 112, "unit": "%"}]}]}
